# Experimental data: patent US20140271653A1 (Regeneron, published 2014)
# Key:
# [1] = target: T1, RSV-F of RSV subtype A strain A2 (1540) (respiratory syncytial virus subtype A, …, UniProt P03420 26-574); assay: cell-based or functional assay
# [2] = target: T2, RSV-F.mmh (Respiratory Syncytial Virus); assay: SPR (Biacore), mAb captured via Fc, soluble RSV-F.mmh injected, 25 C
# T2 construct: also called recombinant RSV-F; soluble monomeric RSV-F
# Experimental: Measurements were conducted on a Biacore 4000 or T-200 instrument. […] All Biacore binding studies were performed in HBST running buffer (0.01 M HEPES pH 7.4, 0.15 M NaCl, 3 mM EDTA, 0.005% v/v surfactant P20). Different concentrations of RSV-F.mmh prepared in HBST running buffer were injected over the anti-RSV-F monoclonal antibody captured surface at a flow rate of 30 μl/min (Biacore 4000) or at a flow rate of 50 μl/min (Biacore T-200) and the association of RSV-F.mmh to captured monoclonal antibody was monitored for 6 min or 3 min respectively. The dissociation of RSV-F.mmh from the monoclonal antibody in HBST running buffer was monitored for 8-10 min at 25° C. Kinetic association (kₐ) and dissociation (kd) rate constants were determined by processing and fitting the data to a 1:1 binding model using Scrubber 2.0 curve fitting software. Binding dissociation equilibrium constants (KD) and dissociative half-lives (t½) were calculated from the kinetic rate constants as: KD (M)=kd/kₐ; and t_{1/2} (min)=(ln 2/(60*kd).
# [3] = target: T1, RSV-F of RSV subtype A strain A2 (1540); assay: cell-based or functional assay; remark: listed apart in the source
# [4] = target: T3, RSV-F of RSV subtype B strain 9320 (respiratory syncytial virus subtype B, …); assay: cell-based or functional assay
# [5] = target: RSV-F of RSV subtype B strain 1A2 (respiratory syncytial virus subtype B, …); assay: cell-based or functional assay
# [6] = target: RSV-F of RSV subtype B strain 1400 (respiratory syncytial virus subtype B, …); assay: cell-based or functional assay
# [7] = target: T4, RSV-F of RSV subtype A strain Long (respiratory syncytial virus subtype A, …, UniProt P12568 26-574); assay: cell-based or functional assay
# [8] = target: RSV-F of RSV subtype B strain 18537 (respiratory syncytial virus subtype B, …, UniProt P13843 26-574); assay: cell-based or functional assay
# [9] = target: RSV-F S173T of escape mutant RSV/B S173T (respiratory syncytial virus subtype B, …); assay: cell-based or functional assay
# [10] = target: T1, RSV-F of RSV subtype A strain A2 (1540); assay: cell-based or functional assay; remark: listed apart in the source
# [11] = target: RSV-F S173Y of escape mutant RSV/A S173Y (respiratory syncytial virus subtype A, …, UniProt P03420 26-574); assay: cell-based or functional assay
# [12] = target: RSV-F T174K of escape mutant RSV/B T174K (respiratory syncytial virus subtype B, …); assay: cell-based or functional assay
# [13] = target: RSV-F S173T/T174K of escape mutant RSV/B S173T/T174K (respiratory syncytial virus subtype B, …); assay: cell-based or functional assay
# [14] = target: T5, RSV-F of RSV subtype B strain 1580 (respiratory syncytial virus subtype B, …); assay: cell-based or functional assay
# [15] = target: T1, RSV-F of RSV subtype A strain A2 (1540); assay: cell-based or functional assay; remark: listed apart in the source
# [16] = target: T4, RSV-F of RSV subtype A strain Long; assay: cell-based or functional assay; remark: listed apart in the source
# [17] = target: RSV-F of RSV subtype A clinical isolate A1998/12-21 (respiratory syncytial virus subtype A, …); assay: cell-based or functional assay
# [18] = target: RSV-F of RSV subtype A clinical isolate A2000/3-4 (respiratory syncytial virus subtype A, …); assay: cell-based or functional assay
# [19] = target: RSV-F of RSV subtype A clinical isolate A1998/3-2 (respiratory syncytial virus subtype A, …); assay: cell-based or functional assay
# [20] = target: RSV-F of RSV subtype A clinical isolate A2001/2-20 (respiratory syncytial virus subtype A, …); assay: cell-based or functional assay
# [21] = target: RSV-F of RSV subtype A clinical isolate A2001/3-12 (respiratory syncytial virus subtype A, …); assay: cell-based or functional assay
# [22] = target: RSV-F of RSV subtype A clinical isolate A1997/12-35 (respiratory syncytial virus subtype A, …); assay: cell-based or functional assay
# [23] = target: T3, RSV-F of RSV subtype B strain 9320; assay: cell-based or functional assay; remark: listed apart in the source
# [24] = target: T5, RSV-F of RSV subtype B strain 1580; assay: cell-based or functional assay; remark: listed apart in the source
binder,measurement,setting,value
"H1M3622N (antibody, V domains shown) VH: QVQLQQWGAGLLKPSETLSLTCAVYGGSLSDYYWSWIRQPPGKGLEWIGEINHSGDTNYDPSLKSRLTISVDTSKNQFSLKLNSVTAADTAVYYCASLYFNFWMWGRGALVTVSS VL: DIVMTQTPLSSPVILGQPASISCRSSQSLVYSDGNTYLSWLQQRPGQPPRLLIYKISNRFSGVPDRFSGSGTGTDFTLKISRVEAEDVGIYYCMQTTQFPLTFGGGTKVEIK","IC50 [pM] for RSV A2 Neutralization, Trial 1",[1],320 pM
same,"IC50 [pM] for RSV A2 Neutralization, Trial 2",[1],82 pM
same,Kd,[2],2.38 nM
same,koff,[2],9.13e-05 s⁻¹
same,kon,[2],38400 M⁻¹ s⁻¹
same,t½,[2],2.12 h
"Control II (motavizumab sequence) (antibody, V domains shown) VH: QVTLRESGPALVKPTQTLTLTCTFSGFSLSTAGMSVGWIRQPPGKALEWLADIWWDDKKHYNPSLKDRLTISKDTSKNQVVLKVTNMDPADTATYYCARDMIFNFYFDVWGQGTTVTVSS VL: DIQMTQSPSTLSASVGDRVTITCSASSRVGYMHWYQQKPGKAPKLLIYDTSKLASGVPSRFSGSGSGTEFTLTISSLQPDDFATYYCFQGSGYPFTFGGGTKVEIKR","IC50 (pM), RSV micro-neutralization, A/A2",[3],202 pM
same,"IC50 (pM), RSV micro-neutralization, B/9320",[4],76 pM
same,"IC50 (pM), RSV micro-neutralization, B/1A2",[5],40 pM
same,"IC50 (pM), RSV micro-neutralization, B/1400",[6],38 pM
same,"IC50 (pM), RSV micro-neutralization, A/Long",[7],83 pM
same,"IC50 (pM), RSV micro-neutralization, B/18537",[8],187 pM
same,"Neutralization IC50, pM (microneutralization, escape mutant)",[9],177 pM
same,"Neutralization IC50, pM (microneutralization, wt subtype A)",[10],108 pM
same,"Neutralization IC50, pM (microneutralization, escape mutant)",[11],170 pM
same,"Neutralization IC50, pM (microneutralization, escape mutant)",[12],108 pM
same,"Neutralization IC50, pM (microneutralization, escape mutant)",[13],218 pM
same,"Neutralization IC50, pM (microneutralization, wt subtype B)",[14],260 pM
same,"IC50 [pM] for RSV A2 Neutralization, Trial 1",[1],50 pM
same,"IC50 [pM] for RSV A2 Neutralization, Trial 2",[1],30 pM
same,"IC50 [pM] for RSV A2 Neutralization, Trial 3",[1],23 pM
same,"IC50 [pM] for RSV A2 Neutralization, Trial 4",[1],20 pM
same,"IC50 [pM] for RSV A2 Neutralization, Trial 5",[1],12 pM
same,"IC50 [pM] for RSV A2 Neutralization, Trial 6",[1],12 pM
same,"IC50 [pM] for RSV A2 Neutralization, Trial 7",[1],12 pM
same,RSV-A2 (1540) Neutral. IC50 [pM],[15],14 pM
same,"RSV-A2 (1540) neutralization, Fold Improvement Relative to Control 1",[15],25 fold
same,RSV-Long Neutral. IC50 [pM],[16],65 pM
same,"RSV-Long neutralization, Fold Improvement Relative to Control 1",[16],8.2 fold
same,"IC50 (pM), RSV micro-neutralization, clinical isolate",[17],68 pM
same,"IC50 (pM), RSV micro-neutralization, clinical isolate",[18],88 pM
same,"IC50 (pM), RSV micro-neutralization, clinical isolate",[19],36 pM
same,"IC50 (pM), RSV micro-neutralization, clinical isolate",[20],74 pM
same,"IC50 (pM), RSV micro-neutralization, clinical isolate",[21],129 pM
same,"IC50 (pM), RSV micro-neutralization, clinical isolate",[22],41 pM
same,RSV-9320 Neutral. IC50 [pM],[23],56 pM
same,"RSV-9320 neutralization, Fold Improvement Relative to Control 1",[23],8.2 fold
same,RSV - 1580 Neutral. IC50 [pM],[24],43 pM
same,"RSV - 1580 neutralization, Fold Improvement Relative to Control 1",[24],8.7 fold
"H1M3621N (antibody, V domains shown) VH: QVQLEQSGAEVKKPGASVRISCKASGDTFTGYYINWVRQAPGQGLEWMGWINTNSGGTYFSQKFQVRVILTRDTSINTAYMELSRLRSDDTAVYYCARMFYDILTNSDIFDIWGQGTMVTVSS VL: DIQMTQSPSSLSASVGDRVTITCRASQDIRNDLGWYQQKPGKAPKCLIYGASSLQSGVPSRFSGSGSGTEFTLTISSLQPEDFATYYCLQHKNYMYTFGQGTKLEIK","IC50 [pM] for RSV A2 Neutralization, Trial 1",[1],582 pM
same,"IC50 [pM] for RSV A2 Neutralization, Trial 2",[1],180 pM
same,Kd,[2],1.01 nM
same,koff,[2],0.000208 s⁻¹
same,kon,[2],205000 M⁻¹ s⁻¹
same,t½,[2],0.933 h
"H1M3624N (antibody, V domains shown, also called H1M2634N) VH: QVQLEQSGAEVKKPGTSVRISCKASGDIFTGYYMNWVRQAPGQGLEWMGWINTNSGGTYFSQRFQGRVTLTRDTSIRTAYMELSRLRSDDTAVYYCARMFYDILTGSDVFDIWGQGTMVTVSS VL: DIQMTQSPSSLSASVGDRVTITCRASQDIRNDLGWYHQKPGKAPKCLIYGASSLQSGVPSRFSGSGSGTEFTLTISSLQPEDFATYYCLQHKNYMYTFGQGTKLEIK","IC50 [pM] for RSV A2 Neutralization, Trial 1",[1],540 pM
same,"IC50 [pM] for RSV A2 Neutralization, Trial 2",[1],270 pM
same,"IC50 [pM] for RSV A2 Neutralization, Trial 3",[1],92 pM
same,Kd,[2],1.02 nM
same,koff,[2],0.000183 s⁻¹
same,kon,[2],179000 M⁻¹ s⁻¹
same,t½,[2],1.05 h
